Experimental data: patent US20240317871A1 (IMMUNOMIC THERAPEUTICS, published 2024)

T1: murine HVEM (murine, UniProt Q80WM9 39-206, limits assumed)
T1 construct: also called Mouse
T1 sequence (looked up): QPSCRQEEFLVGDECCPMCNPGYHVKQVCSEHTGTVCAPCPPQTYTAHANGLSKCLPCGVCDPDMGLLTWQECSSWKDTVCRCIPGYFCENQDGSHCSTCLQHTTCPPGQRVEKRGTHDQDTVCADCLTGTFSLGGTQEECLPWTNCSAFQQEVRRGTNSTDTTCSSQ

T2: human HVEM (human, UniProt Q92956 39-202, limits assumed)
T2 sequence (looked up): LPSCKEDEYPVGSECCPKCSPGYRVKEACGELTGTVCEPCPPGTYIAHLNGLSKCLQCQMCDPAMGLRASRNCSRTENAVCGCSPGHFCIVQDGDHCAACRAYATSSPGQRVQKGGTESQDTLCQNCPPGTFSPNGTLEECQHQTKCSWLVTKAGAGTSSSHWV

T3: cynomolgus monkey HVEM (cynomolgus monkey, UniProt A0A2K5W0R1 39-203)
T3 sequence: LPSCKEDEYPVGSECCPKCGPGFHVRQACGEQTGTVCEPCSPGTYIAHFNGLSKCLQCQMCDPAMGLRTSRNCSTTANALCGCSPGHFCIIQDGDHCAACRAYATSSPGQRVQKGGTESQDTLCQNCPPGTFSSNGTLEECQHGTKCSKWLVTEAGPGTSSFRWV

T4: Human HEVM recombinant protein (Sino Biological, 10334-H02H) (human, UniProt Q92956 39-202)
T4 construct: construct known only by catalogue number; also called HVEM; human HVEM
T4 sequence (looked up): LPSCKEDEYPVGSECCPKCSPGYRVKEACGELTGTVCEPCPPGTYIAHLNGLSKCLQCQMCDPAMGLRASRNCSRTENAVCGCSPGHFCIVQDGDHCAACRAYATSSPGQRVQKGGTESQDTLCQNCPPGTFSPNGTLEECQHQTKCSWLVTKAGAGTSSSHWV

T5: His-tagged human HVEM (human, UniProt Q92956 39-202, limits assumed)
T5 construct: Analyte of the BLI assay, 200 nM in PBS; not shown: His tag
T5 sequence (looked up): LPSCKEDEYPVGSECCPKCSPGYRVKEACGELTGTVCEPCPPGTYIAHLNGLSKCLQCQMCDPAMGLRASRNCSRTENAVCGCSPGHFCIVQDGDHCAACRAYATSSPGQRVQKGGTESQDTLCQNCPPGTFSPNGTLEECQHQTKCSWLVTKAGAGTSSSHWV

B1: Ab_011 (H5S14-12A11A) (antibody, V domains shown)
VH: QVQLQQSGAELVRPGTSVKISCKASGNIFTNSWLGWIKQRPGHGLEWIGDVYPGGGYNKYNEKFKGKATLTIDTSASTAYMQLSRLTSEDSGVYFCAGAMDYWGQGTSVTVSS
VL: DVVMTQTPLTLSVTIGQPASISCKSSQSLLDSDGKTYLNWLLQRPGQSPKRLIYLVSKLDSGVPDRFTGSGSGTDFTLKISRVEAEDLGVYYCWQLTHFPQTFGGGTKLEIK
notes: also called Ab_11
B2: Ab_069 (H5S20-43A19B) (antibody, V domains shown)
VH: QVQLQQSGAELVRPGTSVMISCKASGYTFTNYWLGWVKQRPGHGLEWIGDIYPGGGYIIYNEKFKGKATLTVDSSATTAYMQLSSLTSEDSAVYFCAGAMDYWGQGTSVTVSS
VL: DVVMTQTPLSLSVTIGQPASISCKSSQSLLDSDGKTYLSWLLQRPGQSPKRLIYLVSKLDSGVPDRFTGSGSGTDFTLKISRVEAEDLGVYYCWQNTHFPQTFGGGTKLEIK
notes: also called Ab_155; Ab_69
B3: Ab_070 (H5S20-7A7A) (antibody, V domains shown)
VH: QVQLQQSGAELVRPGTSVKISCKASGYRFTNSWLGWIKQRPGHGLEWIGDIYPGGGYNKYNEKFRGKATLTADTSSSTAYMQLSSLTSEDSAVYFCAGAMDSWGQGTSVTVSS
VL: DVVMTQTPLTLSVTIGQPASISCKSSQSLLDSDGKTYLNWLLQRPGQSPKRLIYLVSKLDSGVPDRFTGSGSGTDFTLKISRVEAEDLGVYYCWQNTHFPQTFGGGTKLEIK
notes: also called Ab_70
B4: Ab_045 (H5S15-31A12C) (antibody, V domains shown)
VH: QVQLQQSGAELVRPGTSVKISCKASGYAFTNSWLGWVKQRPGHGLEWIGDIYPGGGYNKYNEKFKGKATLTADTSSSTAYMQLSSLTSEDSAVYFCAGALDYWGQGTSVTVSS
VL: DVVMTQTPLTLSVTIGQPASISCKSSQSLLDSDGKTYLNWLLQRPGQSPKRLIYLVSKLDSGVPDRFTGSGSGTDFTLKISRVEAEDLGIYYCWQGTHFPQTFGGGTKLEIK
notes: also called Ab_45
B5: Ab_012 (H5S14-13A11A) (antibody, V domains shown)
VH: QVQLQQSGAELVRPGTSVKISCKASGYIFTNSWLGWIKQRPGHGLEWIGDVYPGGGYNKYNEKFKGKATLTIDTSASTAYMQLSRLTSEDSAVYFCAGAMDYWGQGTSVTVSS
VL: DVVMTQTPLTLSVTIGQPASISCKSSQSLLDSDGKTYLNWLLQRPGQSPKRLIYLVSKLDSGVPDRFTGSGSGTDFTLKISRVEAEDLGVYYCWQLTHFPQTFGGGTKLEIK
notes: also called Ab_12
B6: Ab_013 (H5S14-14A11A) (antibody, V domains shown)
VH: QVQLQQSGAELVRPGTSVKISCKASGYIFTNYWLGWIKQRPGHGLEWIGDVYPGGGYNKYNEKFKGKATLTVDTSASTAYMQLSRLTSEDSAVYFCAGAMDYWGQGTSVTVSS
VL: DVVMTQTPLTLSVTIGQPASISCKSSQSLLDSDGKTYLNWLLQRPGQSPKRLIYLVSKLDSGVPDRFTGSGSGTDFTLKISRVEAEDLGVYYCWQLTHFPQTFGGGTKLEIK
notes: also called Ab_13
B7: Ab_046 (H5S15-35A31A) (antibody, V domains shown)
VH: QVQLQQSGAELVRPGTSVKISCKASGYTFTNSWLGWVKQRPGHGLEWIGDIYPGGGYNKYNEKFKGKATLTADTSSSTAYMQLGSLTSEDSAVYFCAGAMDYWGQGTSVTVSS
VL: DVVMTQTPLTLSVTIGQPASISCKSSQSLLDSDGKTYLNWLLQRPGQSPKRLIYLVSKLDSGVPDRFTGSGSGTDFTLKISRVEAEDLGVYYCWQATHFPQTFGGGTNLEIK
notes: also called Ab_46
B8: Ab_068 (H5S20-24A19A) (antibody, V domains shown)
VH: QVQLQQSGAELVRPGTSVKISCKASGYTFTNYWLGWVKQRPGHGLEWIGDIYPGGGYIIYNEKFKGKATLTVDSSATTAYIQLNSLTSEDSAVYFCAGAMDHWGQGTSVTVSS
VL: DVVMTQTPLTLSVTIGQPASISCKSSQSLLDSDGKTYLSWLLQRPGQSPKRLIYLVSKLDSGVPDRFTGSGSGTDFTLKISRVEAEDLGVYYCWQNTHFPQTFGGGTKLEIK
notes: also called Ab_68
B9: Ab_067 (H5S20-7B7B) (antibody, V domains shown)
VH: QVQLQQSGAELIRPGTSVKISCKASGYRFTNSWLGWIKLRPGHGLEWIGDIYPGGGYNKYNEKFRGKATLTADTSSSTAYMQLSSLTSEDSAVYFCAGAMDSWGQGTSVTVSS
VL: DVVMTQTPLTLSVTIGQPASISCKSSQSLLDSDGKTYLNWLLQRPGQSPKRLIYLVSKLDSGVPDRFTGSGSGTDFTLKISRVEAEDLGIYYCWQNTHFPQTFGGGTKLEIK
notes: also called Ab_67
B10: Ab_030 (H5S15-18A17A) (antibody, V domains shown)
VH: QVQLQQSGAELVRPGTSVKMSCKAAGYTFTNSWIGWVKQRPGHGLEWIGDIYPGGGYTNYYEKFKVKATLTADTSSSTAYMQLSSLTSEDSAIYYCASSGAYWGQGTTLTVSS
VL: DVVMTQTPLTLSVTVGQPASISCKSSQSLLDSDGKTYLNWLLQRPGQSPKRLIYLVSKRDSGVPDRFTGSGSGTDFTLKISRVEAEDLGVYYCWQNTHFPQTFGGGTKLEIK
notes: also called Ab_30
B11: Ab_031 (H5S15-8A17A) (antibody, V domains shown)
VH: QVQLQQSGAELVRPGTSVKMSCKAAGYTFTDSWIGWVKQRPGHGLEWIGDIYPGGGYTNYNEKFKGKATLTADTSSSTAYMQLSRLTSEDSAIYYCASSGAYWGQGTTLTVSS
VL: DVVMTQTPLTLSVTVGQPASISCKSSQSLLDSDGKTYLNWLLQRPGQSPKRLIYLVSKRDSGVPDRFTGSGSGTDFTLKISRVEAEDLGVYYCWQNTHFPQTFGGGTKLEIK
notes: also called Ab_31
B12: Ab_050 (H5S19-9A11A) (antibody, V domains shown)
VH: QVQLKQSGPGLVQPSQSLSITCTVSGFSLTTYGVHWVRQSPGKGLEWLGVIWSGGSTDYNAAFISRLSISKDNSKSQVFFKMNSLQANDTAIYYCARRGYGSPYYYAMDYWGQGTSVTVSS
VL: EIVLTQSPALMAASPGEKVTITCSVSSSISSSNLHWYQQKSETSPKPWIYGTSNLASGVPVRFSGSGSGTSYSLTISSMEAEDAATYYCQQWSSYPLTFGAGTKLELK
notes: also called Ab_50
B13: Ab_001 (H5S14-1A1A) (antibody, V domains shown)
VH: DVKLVESGGGLVKPGGSLKLSCAASVFTFSRYTMSWVRQTPEKRLEWVATISSGGSYTYYPDSVKGRFTISRDNAKNTLYLQMSSLKSEDTAIYYCTRGGDGLFDYWGQGTALTVSS
VL: DVQITQSPSYLAASPGETITINCRASKSISKYLAWYQEKPGKTNQLLIYSGSTLQSGIPSRFSGSGSGTDFTLTISSLEPEDFAMYYCQQHNEYPWTFGGGTKLEIK
notes: also called Ab_1

Key:
murine HVEM = biological target: T1, murine HVEM; assay: ELISA
human HVEM = biological target: T2, human HVEM; assay: ELISA
cynomolgus monkey HVEM = biological target: T3, cynomolgus monkey HVEM; assay: ELISA
[1] = biological target: T4, Human HEVM recombinant protein (Sino …); assay: competition ELISA, competitor LIGHT-His
Experimental: (§1) The competitive activity of HVEM antibody to BTLA or LIGHT was evaluated with ELISA-based competitive assay. Briefly Human HEVM recombinant protein (Sino Biological, 10334-H02H, 4 ug/ml, 100 ul/well) was coated to ELISA plate (Thermo Scientific, 469949, 4C overnight). A pre-mixture of HVEM antibody clone with seral dilution and 400 nM BTLA-His (R&D systems, 9235-BT-050) or LIGHT-His (SinoBiological, 10386-H07H) recombinant protein was made and added to the ELISA plate after blocking with 3% BSA (200 ul/well, RT 2 Hr) for 1 Hr at RT. The serial dilutions of HVEM antibody clone involve 7 different concentrations, with a 3-fold dilution performed start from 100 nM for BTLA or 325 nM for LIGHT competitive assay. The concentration was the final concentration. Plate was washed with PBST; diluted HRP-anti-His (Biolegend, 652504, 1:1000) with PBS containing 5% FBS was added 100 ul per well for 1 Hr at RT. TMB substrate (KPL, 52-00-00) 100 ul per well after washing and incubate at room temperature for 15 minutes; then stop the development by adding 100 ul stop solution (KPL, 50-85-06). Plate was read at 450 nm. The IC50 was calculated using GraphPad Prism software (GraphPad Software, Inc. San Diego, CA, USA).

His-tagged human HVEM = biological target: T5, His-tagged human HVEM; assay: BLI OctetRed96, mAb captured, 200 nM His-HVEM
Method in brief: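 Murine anti-human HVEM antibodies captured from culture supernatant on anti-mouse IgG Fc biosensors, then associated with 200 nM His-tagged human HVEM in PBS, followed by dissociation in PBS. koff, kon and KD obtained by curve fitting.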

[2] = biological target: T4, Human HEVM recombinant protein (Sino …); assay: competition ELISA, competitor BTLA-His
Experimental: as §1

Row | Binder | ELISA signal (murine HVEM) | ELISA signal (human HVEM) | ELISA signal (cynomolgus monkey HVEM) | IC50 [1] [µM] | Kd (His-tagged human HVEM) [µM] | koff (His-tagged human HVEM) [s⁻¹] | kon (His-tagged human HVEM) [M⁻¹ s⁻¹] | IC50 [2] [µM]
1 | B1 | 0.049 | 3.16 | 2.97 | 0.0205 | 0.00278 | 0.00107 | 385000 | –
2 | B2 | 0.054 | 3.13 | 3.04 | 0.0223 | 0.00297 | 0.000803 | 271000 | –
3 | B3 | 0.062 | 3.23 | 3.1 | 0.0178 | 0.00233 | 0.00102 | 438000 | –
4 | B4 | 0.042 | 3.08 | 2.9 | 0.031 | 0.00732 | 0.00265 | 362000 | –
5 | B5 | 0.044 | 3.08 | 2.89 | 0.0209 | 0.00322 | 0.00121 | 375000 | –
6 | B6 | 0.048 | 3 | 2.74 | 0.0281 | 0.00439 | 0.00149 | 340000 | –
7 | B7 | 0.042 | 2.94 | 3.03 | 0.0272 | 0.00459 | 0.00169 | 368000 | –
8 | B8 | 0.044 | 3.03 | 3.04 | 0.0205 | 0.00599 | 0.00192 | 320000 | –
9 | B9 | 0.047 | 3.05 | 3.04 | 0.0136 | 0.00265 | 0.00134 | 505000 | –
10 | B10 | 0.046 | 3.08 | 2.98 | 0.0219 | 0.0103 | 0.00419 | 405000 | –
11 | B11 | 0.042 | 3.08 | 3.06 | 0.022 | 0.011 | 0.00321 | 291000 | –
12 | B12 | 0.047 | 3.02 | 0.094 | 0.117 | 0.0422 | 0.00481 | 114000 | 0.003
13 | B13 | 0.057 | 3.3 | 0.072 | 0.715 | 0.55 | 0.154 | 280000 | 0.0022
